Assay results: US20050152926A1

Key:
[1] = molecular target: HLA A2 on RMA-S/A2 cells (human); assay: RMA-S/A2 HLA A2 stabilisation, BB7.2 FACS; 100 µM peptide; ΔMean minus highest HepB ΔMean
[2] = molecular target: HLA A2 on RMA-S/A2 cells (human); assay: RMA-S/A2 HLA A2 stabilisation, BB7.2 FACS; 100 µM peptide; FIG 1(xxv)
[3] = molecular target: HLA A2 on RMA-S/A2 cells (human); assay: RMA-S/A2 HLA A2 stabilisation, BB7.2 FACS; 100 µM peptide; FIG 1(xxvi)
[4] = molecular target: HLA A2 on RMA-S/A2 cells (human); assay: RMA-S/A2 HLA A2 stabilisation, BB7.2 FACS; 100 µM peptide; FIG 2(x)
[5] = molecular target: HLA A2 on RMA-S/A2 cells (human); assay: RMA-S/A2 HLA A2 stabilisation, BB7.2 FACS; 10 µM peptide; FIG 2(xi)
[6] = molecular target: HLA A2 on RMA-S/A2 cells (human); assay: RMA-S/A2 HLA A2 stabilisation, BB7.2 FACS; 10 µM peptide; ΔMean minus highest HepB ΔMean
[7] = molecular target: HLA A2 on RMA-S/A2 cells (human); assay: RMA-S/A2 HLA A2 stabilisation, BB7.2 FACS; 100 µM peptide; FIG 2(xix)
[8] = molecular target: HLA A2 on RMA-S/A2 cells (human); assay: RMA-S/A2 HLA A2 stabilisation, BB7.2 FACS; 100 µM peptide; FIG 3(xix)
[9] = molecular target: HLA A2 on RMA-S/A2 cells (human); assay: RMA-S/A2 HLA A2 stabilisation, BB7.2 FACS; 100 µM peptide; FIG 3(xx)
[10] = molecular target: HLA A2 on RMA-S/A2 cells (human); assay: RMA-S/A2 HLA A2 stabilisation, BB7.2 FACS; 100 µM peptide; FIG 3(xxi)
[11] = molecular target: HLA A2 on RMA-S/A2 cells (human); assay: RMA-S/A2 HLA A2 stabilisation, BB7.2 FACS; 100 µM peptide; FIG 3(xxii)
[12] = molecular target: HLA A2 on RMA-S/A2 cells (human); assay: RMA-S/A2 HLA A2 stabilisation, BB7.2 FACS; 100 µM peptide; FIG 3(xxiii)
[13] = molecular target: HLA A2 on RMA-S/A2 cells (human); assay: RMA-S/A2 HLA A2 stabilisation, BB7.2 FACS; 100 µM peptide; FIG 3(xxiv)
[14] = molecular target: HLA A2 on RMA-S/A2 cells (human); assay: RMA-S/A2 HLA A2 stabilisation, BB7.2 FACS; 100 µM peptide; FIG 3(xxv)
[15] = molecular target: HLA A2 on RMA-S/A2 cells (human); assay: RMA-S/A2 HLA A2 stabilisation, BB7.2 FACS; 1 µM peptide; ΔMean minus highest HepB ΔMean
[16] = molecular target: HLA A2 on RMA-S/A2 cells (human); assay: RMA-S/A2 HLA A2 stabilisation, BB7.2 FACS; 1 µM peptide; FIG 1(xii)
[17] = molecular target: HLA A2 on RMA-S/A2 cells (human); assay: RMA-S/A2 HLA A2 stabilisation, BB7.2 FACS; 100 µM peptide; FIG 1(xxi)
[18] = molecular target: HLA A2 on RMA-S/A2 cells (human); assay: RMA-S/A2 HLA A2 stabilisation, BB7.2 FACS; 100 µM peptide; FIG 1(xxii)

LLLTLGYAV (modifications not checked) [CH19]
High - B [1]: 0
Mean 2 [2]: 436
Δ Mean [2]: 240

ALMLLNNYV (modifications not checked) [CH20]
Mean 2 [3]: 578
Δ Mean [3]: 384
High - B [1]: 138

TLWGSFVDV (modifications not checked) [CH21]
High - B [1]: 121
Mean 2 [4]: 440
Δ Mean [4]: 275

WLFDLRFSV (modifications not checked) [CH22]
Mean 2 [5]: 390
Δ Mean [5]: 227
High - B [6]: 73

KLLKDHFDL (modifications not checked) [CH34]
High - B [1]: 81
Mean 2 [7]: 390
Δ Mean [7]: 235

SLCAQSSYV (modifications not checked) [CH50]
High - B [1]: 91
Mean 2 [8]: 381
Δ Mean [8]: 251

NLSRQAFFA (modifications not checked) [CH51]
High - B [1]: 19
Mean 2 [9]: 311
Δ Mean [9]: 179

SLLEEHPVV (modifications not checked) [CH52]
High - B [1]: 89
Mean 2 [10]: 396
Δ Mean [10]: 249

NLWSHYTDL (modifications not checked) [CH53]
Mean 2 [11]: 350
Δ Mean [11]: 209
High - B [1]: 48

ALWKENQAL (modifications not checked) [CH54]
High - B [1]: 91
Δ Mean [12]: 251

ALWGHNVLL (modifications not checked) [CH55]
High - B [1]: 98
Mean 2 [13]: 411
Δ Mean [13]: 258

NLAGGILSV (modifications not checked) [CH56]
Mean 2 [14]: 383
Δ Mean [14]: 240
High - B [1]: 80

VLNLFFSAL (modifications not checked) [CH3]
High - B [15]: 0
Mean 2 [16]: 419
Δ Mean [16]: 224

YLTSYSPYV (modifications not checked) [CH15]
Mean 2 [17]: 557
Δ Mean [17]: 322
High - B [1]: 76

VQLAYVFDV (modifications not checked) [CH16]
High - B [1]: 0
Mean 2 [18]: 433
Δ Mean [18]: 232
